The record followed here is publication PMC4982076, “lin28 proteins promote expression of 17∼92 family miRNAs during amphibian development”.

Data set [1] deals with T1, Xrt-lin28a (Xenopus tropicalis, UniProt Q5EB47 34-177).
T1 sequence: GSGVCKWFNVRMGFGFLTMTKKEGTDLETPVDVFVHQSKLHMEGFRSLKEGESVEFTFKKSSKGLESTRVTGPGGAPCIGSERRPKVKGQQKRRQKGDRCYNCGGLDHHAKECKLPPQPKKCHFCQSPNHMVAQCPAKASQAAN
In words: EMSA. The following applies: Bmax 1.017; n=3; 60 mM KCl, 10 mM HEPES pH 7.6, 3 mM MgCl2, 5% glycerol, 1 mM DTT, 5 ug/ul heparin, 150 ng yeast total RNA; 30 min room temperature; 10% native PAGE. (In general: A gel shift assay detects complexes by their altered migration in electrophoresis.)

In data set [2] the target is T1, Xrt-lin28a. As to the kind of experiment: EMSA; Bmax 0.962; n=3; 60 mM KCl, 10 mM HEPES pH 7.6, 3 mM MgCl2, 5% glycerol, 1 mM DTT, 5 ug/ul heparin, 150 ng yeast total RNA; 30 min room temperature; 10% native PAGE. The following applies: protein: recombinant.

For the molecule L-let-7g, the Kd with Xrt-lin28a [1] is 314 nM. With UGCAAUUUUAUUUAGUUUGGUAGGAGAAAAAUUGC (structured_RNA) [L-mir-363], in the data set with Xrt-lin28a [2], the Kd turned out to be 448 nM.

One may read the Kd as the equilibrium constant for the complex coming apart.
